Consider 1 molecule from publication PMC9813255 (2023).

As usually defined, the Kd is the concentration at which binding is half-saturated. Higher therefore signals weaker binding.

Experiment [1] concerns the target human nucleolin (His-tag fusion protein) (human, UniProt P19338 1-710). In words: SPR; fibrillarin analyte, nucleolin immobilized. On the technique in general: SPR reads the build-up and loss of mass on a sensor chip optically.
The target of experiment [2] is T1, full-length human PQBP5 (His-tag fusion protein) (human, UniProt Q9BSC4-1 1-688).
T1 chain: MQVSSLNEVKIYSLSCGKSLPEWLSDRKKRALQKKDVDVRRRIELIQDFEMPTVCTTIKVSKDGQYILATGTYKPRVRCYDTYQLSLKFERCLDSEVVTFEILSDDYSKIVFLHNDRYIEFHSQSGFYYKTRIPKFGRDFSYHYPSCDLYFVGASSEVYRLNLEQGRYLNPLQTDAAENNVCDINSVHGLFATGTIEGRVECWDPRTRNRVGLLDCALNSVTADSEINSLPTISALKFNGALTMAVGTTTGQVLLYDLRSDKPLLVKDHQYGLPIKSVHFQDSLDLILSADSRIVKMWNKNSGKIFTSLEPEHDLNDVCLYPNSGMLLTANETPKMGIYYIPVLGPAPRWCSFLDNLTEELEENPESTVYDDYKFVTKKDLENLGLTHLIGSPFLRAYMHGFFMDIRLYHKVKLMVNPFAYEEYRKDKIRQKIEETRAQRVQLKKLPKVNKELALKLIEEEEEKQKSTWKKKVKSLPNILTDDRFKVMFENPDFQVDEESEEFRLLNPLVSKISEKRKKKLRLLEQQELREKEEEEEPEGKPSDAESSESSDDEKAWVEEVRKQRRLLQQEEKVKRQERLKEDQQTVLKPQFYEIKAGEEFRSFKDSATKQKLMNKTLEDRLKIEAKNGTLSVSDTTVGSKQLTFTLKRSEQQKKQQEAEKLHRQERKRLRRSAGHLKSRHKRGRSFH
In words: SPR; fibrillarin analyte, PQBP5 immobilized.

Sequence of human nucleolin (His-tag fusion protein) (P19338 whole entry, the tested form may be a part): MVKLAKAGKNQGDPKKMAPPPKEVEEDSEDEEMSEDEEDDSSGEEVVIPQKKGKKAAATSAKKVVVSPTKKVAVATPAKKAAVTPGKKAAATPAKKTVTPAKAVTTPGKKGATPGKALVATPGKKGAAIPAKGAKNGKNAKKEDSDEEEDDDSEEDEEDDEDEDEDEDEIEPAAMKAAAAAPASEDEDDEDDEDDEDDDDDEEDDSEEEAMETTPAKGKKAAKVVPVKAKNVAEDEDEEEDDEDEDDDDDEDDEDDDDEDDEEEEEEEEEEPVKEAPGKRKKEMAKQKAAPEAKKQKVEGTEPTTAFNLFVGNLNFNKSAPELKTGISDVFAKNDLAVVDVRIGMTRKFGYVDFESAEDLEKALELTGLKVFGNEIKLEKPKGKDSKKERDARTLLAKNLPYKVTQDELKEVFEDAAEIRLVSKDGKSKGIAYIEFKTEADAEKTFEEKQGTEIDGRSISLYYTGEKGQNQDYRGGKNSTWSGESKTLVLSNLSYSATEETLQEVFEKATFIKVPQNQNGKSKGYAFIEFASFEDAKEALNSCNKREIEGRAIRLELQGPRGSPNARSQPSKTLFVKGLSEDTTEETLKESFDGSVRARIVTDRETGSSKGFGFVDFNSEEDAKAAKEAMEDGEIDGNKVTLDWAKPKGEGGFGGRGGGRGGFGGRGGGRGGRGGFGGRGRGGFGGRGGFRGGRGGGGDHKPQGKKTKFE

B1: human fibrillarin (His-tag fusion protein) (natural protein)
chain: MKPGFSPRGGGFGGRGGFGDRGGRGGRGGFGGGRGRGGGFRGRGRGGGGGGGGGGGGGRGGGGFHSGGNRGRGRGGKRGNQSGKNVMVEPHRHEGVFICRGKEDALVTKNLVPGESVYGEKRVSISEGDDKIEYRAWNPFRSKLAAAILGGVDQIHIKPGAKVLYLGAASGTTVSHVSDIVGPDGLVYAVEFSHRSGRDLINLAKKRTNIIPVIEDARHPHKYRMLIAMVDVIFADVAQPDQTRIVALNAHTFLRNGGHFVISIKANCIDSTASAEAVFASEVKKMQQENMKPQEQLTLEPYERDHAVVVGVYRPPPKVKN
Regarding B1, the equilibrium dissociation constant (Kd) in experiment [1] was determined as 2.78 nM; in experiment [2], 10 nM.
